Measurements reported in US20220348635A1, “COMPOSITIONS AND METHODS FOR NEUROLOGICAL DISEASES” (Coda Biotherapeutics, Inc., priority 2019, published 2022).

Experiments:
Type in all cases: cell-based
[1] = High throughput electrophysiology in HEK293T cells, AZD-0328; settings: HEK293T cells, held at −60 mV
In short: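 Engineered receptors transiently expressed in HEK293T cells, recorded 24 h post-transfection by automated whole-cell patch clamp at −60 mV, CsCl intracellular, pH 7.2 extracellular buffer. Progressive agonist doses applied for 1 s; peak currents fit to a 4-parameter Hill equation for EC50.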

[2] = YFP quench plate reader assay, response to APN-1125; settings: LX293T YFP reporter cells
In short: (§1)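 Cells were seeded two days ahead, transfected the next day with mutant channel DNA, and washed in HEPES-buffered ECS on assay day. After 30 min at 37° C, iodide-containing ligand solution was added, and YFP quench tracked every 1.3 sec relative to baseline.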

[3] = YFP quench plate reader assay, response to acetylcholine; settings: LX293T YFP reporter cells
In short: as §1

[4] = Rheobase shift in rat DRG neurons, TC-5619
Method: Using whole cell manual patch clamp electrophysiology in HEK293 cells and rat DRG neurons, the EC50 of the various engineered receptors disclosed herein to Ach and non-native ligands was measured. The rheobase shift was also measured in rat DRG neurons, which reflects the efficacy of the receptors. To calculate the rheobase, first, the amount of current that can produce an action potential was determined. Then the ligand was added, followed by a step wise increase in the current injected up to 700 pA. The current injected after addition of the ligand was divided by, the original current injected to obtain an action potential, to calculate the rheobase. The EC50 was calculated using the Hill equation with peak current measurements from escalating doses of ligand.

[5] = YFP quench plate reader assay, response to TC-5619; settings: LX293T YFP reporter cells
In short: as §1

B1: Y115D, L131Q in SEQ ID NO: 33: CR-11 (Chemogenic receptor-11): SEQ ID NO: 33 with substitutions Y115D and L131Q (protein)
chain: MRCSPGGVWLALAASLLHVSLQGEFQRKLYKELVKNYNPLERPVANDSQPLTVYFSLSLLQIMDVDEKNQVLTTNIWLQMSWTDHYLQWNVSEYPGVKTVRFPDGQIWKPDILLDNSADERFDATFHTNVQVNSSGHCQYLPPGIFKSSCPMDLKNFPMDVQTCKLKFGSWSYGGWSLDLQMQEADISGYIPNGEWDLVGIPGKRSERFYECCKEPYPDVTFTVTMRRRMGYYLIQMYIPSLLIVILSWISFWINMDAAPARVGLGITTVLTMTTQSSGSRASLPKVSYVKAIDIWMAVCLLFVFSALLEYAAVNFVSRQHKELLRFRRKRRHHKSPMLNLFQEDEAGEGRFNFSAYGMGPACLQAKDGISVKGANNSNTTNPPPAPSKSPEEMRKLFIQRAKKIDKISRIGFPMAFLIFNMFYWIIYKIVRREDVHNQ
modifications: synthetic sequence of chimeric LGIC
- EC50 AZD-0328 [1]: no activity
- percent quench of YFP fluorescence, 100 nM apn ([2]; 100 nM APN-1125): −10.03%
- percent quench of YFP fluorescence, 1 uM apn ([2]; 1 uM APN-1125): −3.33%
- percent quench of YFP fluorescence, 30 uM apn ([2]; 30 uM APN-1125): 6.96%
- percent quench of YFP fluorescence, 10 uM ach ([3]; 10 uM acetylcholine): 9.47%
- percent quench of YFP fluorescence, 100 uM ach ([3]; 100 uM acetylcholine): 6.12%
- percent quench of YFP fluorescence, 1 mM ach ([3]; 1 mM acetylcholine): −1.56%
- percent quench of YFP fluorescence, 3 mM ach ([3]; 3 mM acetylcholine): 17.57%
- Rheobase Shift; Rat DRG Neurons, +TC-5619 ([4]; TC5619 @ EC90): 625 ± 35 pA
- Rheobase Shift; Rat DRG Neurons, Baseline ([4]; receptor-expressing rat DRG neurons, before ligand): 163 ± 28 pA
- percent quench of YFP fluorescence, 1 nM brd ([5]; 1 nM TC-5619): 0.92%
- percent quench of YFP fluorescence, 3 nM brd ([5]; 3 nM TC-5619): −4.65%
- percent quench of YFP fluorescence, 10 nM brd ([5]; 10 nM TC-5619): 0.38%
- percent quench of YFP fluorescence, 30 nM brd ([5]; 30 nM TC-5619): 8.96%
- percent quench of YFP fluorescence, 100 nM brd ([5]; 100 nM TC-5619): 12.18%
- percent quench of YFP fluorescence, 300 nM brd ([5]; 300 nM TC-5619): −0.3%
- percent quench of YFP fluorescence, 1 uM brd ([5]; 1 uM TC-5619): 45.47%
